Results published in patent US20250277020A1 (Boehringer Ingelheim, published 2025).
Substitutions are numbered along the chain they refer to. Values joined by “and” are separate entries in the source; they are usually repeats but may differ in a detail not shown here. Equal values may be shown once.

Columns and labels:
Full-length human CTGF [1] = biological target: T1, Full-length human CTGF (human, UniProt P29279 27-349); experiment: SPR Biacore 8K+, mAb captured on Protein A/G, full length hCTGF as analyte
T1 construct: Corresponds to NCBI NP_001892.1 with the signal peptide omitted; purchased from R&D Systems; also called hCTGF full length; full length CTGF
T1 sequence: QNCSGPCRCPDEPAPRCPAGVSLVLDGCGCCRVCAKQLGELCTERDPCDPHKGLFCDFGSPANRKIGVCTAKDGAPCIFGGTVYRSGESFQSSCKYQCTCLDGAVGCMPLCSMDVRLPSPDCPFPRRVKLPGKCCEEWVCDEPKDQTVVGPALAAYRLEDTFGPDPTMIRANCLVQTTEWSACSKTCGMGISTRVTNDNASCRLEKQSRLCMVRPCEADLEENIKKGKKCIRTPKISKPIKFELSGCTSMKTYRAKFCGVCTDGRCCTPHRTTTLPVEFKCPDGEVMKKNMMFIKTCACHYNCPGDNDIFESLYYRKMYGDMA
Protocol: (§1) Binding affinity of anti-CTGF antibodies H1 (having the light chain of SEQ ID NO: 22 and the heavy chain of SEQ ID NO: 23), H2 (having the light chain of SEQ ID NO: 24 and the heavy chain of SEQ ID NO: 25), F1, and A97 for full length human CTGF or human CTGF N-terminal fragment are determined by surface plasmon resonance (SPR).
(§2) Surface plasmon resonance is conducted using a Biacore 8K+ (Cytiva). Protein A/G (Thermo Scientific) is amine coupled to CM5 Sensor S Chip (Cytiva). For binding to hCTGF N-terminal fragment (NTF), anti-CTGF antibody (1 μg/ml) is captured on the Protein A/G surface, followed by various concentrations of antigen (100 nM to 0.78 nM; 2-fold dilutions). For binding to hCTGF full length, anti-CTGF antibody (0.2 μg/ml) is captured followed by various concentrations of antigen (10 nM to 0.156 nM; 2-fold dilutions).

[2] = biological target: T2, Human N-terminal fragment of CTGF (CTGF-NTF) (human, UniProt P29279 27-180); experiment: SPR Biacore 8K+, mAb captured on Protein A/G, hCTGF NTF as analyte
T2 construct: Recombinantly expressed; also called hCTGF NTF; CTGF N-terminal fragment
T2 chain: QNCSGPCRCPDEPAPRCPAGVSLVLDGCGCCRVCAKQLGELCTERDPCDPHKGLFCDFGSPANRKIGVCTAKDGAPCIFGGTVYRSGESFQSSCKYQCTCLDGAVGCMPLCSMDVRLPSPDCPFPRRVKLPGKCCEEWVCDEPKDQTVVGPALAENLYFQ
Protocol: as §1, §2

Full-length human CTGF [3] = biological target: T1, Full-length human CTGF; experiment: SPR, full length CTGF
Full-length human CTGF [4] = biological target: T1, Full-length human CTGF; experiment: SPR, full length CTGF; Table 15 screen of humanized variants, SPR on full length CTGF
In short: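 Humanized antibody variants were made by co-expressing each of eight heavy-chain variable-region variants with each of sixteen light-chain variable-region variants in CHO cells, giving 128 combinations. Binding affinity (Kd) of each combination for full-length human CTGF was determined by surface plasmon resonance. The text gives no instrument, chip, concentrations, temperature, buffer, replicates or fitting model for this measurement.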

B1: Antibody H1 (antibody, human IgG1, lambda, V domains shown)
VH: EVTLKESGPVLVKPTETLTLTCTVSGFSLSTFGVHWIRQPPGKGLEWLGVIWRRGGTDYNAAFMSRLTISKDTSKSQVVFTMTNMDPVDTATYYCARDGGFDYWGQGTTVTVSS
VL: ETVVTQEPSLTVSPGGTVTLTCRSSIGAVTTSNYANWVQQKPGQAFRGLIGGTSNRAPWTPARFSGSLLGGKAALTLSGVQPEDEAEYYCALWYSTHYVFGGGTKLTVLG
notes: Comparator anti-CTGF antibody, full length
Full-length human CTGF [1]
  Kd: 0.0983 nM and 0.098 nM
  koff: 0.000671 s⁻¹
  kon: 6.83e+06 M⁻¹ s⁻¹
[2]
  Kd: 8.82 nM and 8.8 nM
  koff: 0.0107 s⁻¹
  kon: 1.22e+06 M⁻¹ s⁻¹

B2: Antibody F1 (antibody, V domains shown)
VH: EGQLVQSGGGLVHPGGSLRLSCAGSGFTFSSYGMHWVRQAPGKGLEWVSGIGTGGGTYSTDSVKGRFTISRDNAKNSLYLQMNSLRAEDMAVYYCARGDYYGSGSFFDCWGQGTLVTVSS
VL: DIQMTQSPSSLSASVGDRVTITCRASQGISSWLAWYQQKPEKAPKSLIYAASSLQSGVPSRFSGSGSGTDFTLTISSLQPEDFATYYCQQYNSYPPTFGQGTKLEIKR
notes: as for B1
Full-length human CTGF [1]
  Kd: 0.247 nM and 0.25 nM
  koff: 0.00337 s⁻¹
  kon: 1.37e+07 M⁻¹ s⁻¹
[2]
  Kd: 30.3 nM and 30 nM
  koff: 0.0105 s⁻¹
  kon: 345000 M⁻¹ s⁻¹

B3: A105 (antibody, human IgG1, kappa, L234A L235A)
light: DIVMTQTPLSLSVSLGDQASISCKSSQSIVHYNGNTYLEWYLQKPGQSPQLLIYKVSSRASGVPDRFSGSGSGTDFTLKISRVEAEDLGVYYCFQGSHFPLTFGQGTKLEIKRTVAAPSVFIFPPSDEQLKSGTASVVCLLNNFYPREAKVQWKVDNALQSGNSQESVTEQDSKDSTYSLSSTLTLSKADYEKHKVYACEVTHQGLSSPVTKSFNRGEC
heavy: not shown
Full-length human CTGF [3]
  Kd: 0.42 nM

B4: A111 (antibody, human IgG1, kappa, L234A L235A)
light: B3 light
heavy: not shown
Full-length human CTGF [3]
  Kd: 0.51 nM

B5: A106 (antibody, human IgG1, kappa, L234A L235A)
light: B3 light
heavy: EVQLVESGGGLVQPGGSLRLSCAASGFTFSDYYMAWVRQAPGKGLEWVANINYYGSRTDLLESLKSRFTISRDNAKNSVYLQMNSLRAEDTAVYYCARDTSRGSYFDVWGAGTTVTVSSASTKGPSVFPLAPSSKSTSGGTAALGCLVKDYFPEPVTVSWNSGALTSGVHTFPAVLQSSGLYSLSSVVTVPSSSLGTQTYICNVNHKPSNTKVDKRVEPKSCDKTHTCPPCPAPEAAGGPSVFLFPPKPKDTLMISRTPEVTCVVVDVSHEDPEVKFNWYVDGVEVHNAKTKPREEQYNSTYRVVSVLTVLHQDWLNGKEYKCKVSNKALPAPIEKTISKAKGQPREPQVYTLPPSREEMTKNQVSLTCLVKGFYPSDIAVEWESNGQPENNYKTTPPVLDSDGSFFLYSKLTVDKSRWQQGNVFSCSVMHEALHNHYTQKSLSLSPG
Full-length human CTGF [3]
  Kd: 0.43 nM

B6: A110 (antibody, human IgG1, kappa, L234A L235A)
light: B3 light
heavy: not shown
Full-length human CTGF [3]
  Kd: 0.45 nM

B7: A109 (antibody, human IgG1, kappa, L234A L235A)
light: B3 light
heavy: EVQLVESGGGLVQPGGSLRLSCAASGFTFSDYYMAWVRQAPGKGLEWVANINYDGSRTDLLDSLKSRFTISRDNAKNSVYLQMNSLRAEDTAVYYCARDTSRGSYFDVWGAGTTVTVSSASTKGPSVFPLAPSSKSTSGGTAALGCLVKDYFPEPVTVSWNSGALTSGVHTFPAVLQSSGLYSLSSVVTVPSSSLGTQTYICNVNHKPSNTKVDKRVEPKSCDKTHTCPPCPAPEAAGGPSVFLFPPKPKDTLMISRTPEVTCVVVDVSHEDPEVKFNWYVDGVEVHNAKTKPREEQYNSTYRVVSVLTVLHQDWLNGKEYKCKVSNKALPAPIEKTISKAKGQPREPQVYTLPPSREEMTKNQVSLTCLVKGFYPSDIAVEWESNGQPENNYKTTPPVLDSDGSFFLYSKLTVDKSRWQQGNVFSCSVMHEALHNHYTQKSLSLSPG
Full-length human CTGF [3]
  Kd: 0.44 nM

B8: A119 (antibody, human IgG1, kappa, L234A L235A)
light: B3 light with G34E, N35K
heavy: not shown
Full-length human CTGF [3]
  Kd: 0.91 nM

B9: A114 (antibody, human IgG1, kappa, L234A L235A)
light: B3 light with G34E, N35K
heavy: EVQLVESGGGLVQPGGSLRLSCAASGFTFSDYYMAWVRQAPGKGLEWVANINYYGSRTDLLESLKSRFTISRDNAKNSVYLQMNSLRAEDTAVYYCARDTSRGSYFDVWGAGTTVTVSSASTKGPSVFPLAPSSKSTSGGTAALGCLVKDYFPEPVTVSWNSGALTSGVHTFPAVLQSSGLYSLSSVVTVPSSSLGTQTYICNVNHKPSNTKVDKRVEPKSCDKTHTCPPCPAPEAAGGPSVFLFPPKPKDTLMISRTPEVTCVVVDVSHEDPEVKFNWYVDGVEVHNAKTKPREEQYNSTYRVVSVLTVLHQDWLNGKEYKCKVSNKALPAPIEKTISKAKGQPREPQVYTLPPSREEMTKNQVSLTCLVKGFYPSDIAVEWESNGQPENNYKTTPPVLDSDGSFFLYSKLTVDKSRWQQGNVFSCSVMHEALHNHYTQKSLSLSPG
Full-length human CTGF [3]
  Kd: 0.75 nM

B10: A112 (antibody, human IgG1, kappa, L234A L235A)
light: B3 light
heavy: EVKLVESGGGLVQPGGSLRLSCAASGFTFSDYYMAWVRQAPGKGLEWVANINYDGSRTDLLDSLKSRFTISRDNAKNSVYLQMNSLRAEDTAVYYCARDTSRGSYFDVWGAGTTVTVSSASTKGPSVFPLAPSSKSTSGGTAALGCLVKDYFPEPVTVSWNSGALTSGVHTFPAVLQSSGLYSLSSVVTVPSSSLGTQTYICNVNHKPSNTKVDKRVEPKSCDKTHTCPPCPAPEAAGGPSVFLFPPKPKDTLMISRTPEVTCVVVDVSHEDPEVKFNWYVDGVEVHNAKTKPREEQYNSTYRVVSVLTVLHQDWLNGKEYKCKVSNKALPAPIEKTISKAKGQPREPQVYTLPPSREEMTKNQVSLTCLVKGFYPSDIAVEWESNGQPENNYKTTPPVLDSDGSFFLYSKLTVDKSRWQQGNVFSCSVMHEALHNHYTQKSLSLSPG
Full-length human CTGF [3]
  Kd: 0.48 nM

B11: A117 (antibody, human IgG1, kappa, L234A L235A)
light: B3 light with G34E, N35K
heavy: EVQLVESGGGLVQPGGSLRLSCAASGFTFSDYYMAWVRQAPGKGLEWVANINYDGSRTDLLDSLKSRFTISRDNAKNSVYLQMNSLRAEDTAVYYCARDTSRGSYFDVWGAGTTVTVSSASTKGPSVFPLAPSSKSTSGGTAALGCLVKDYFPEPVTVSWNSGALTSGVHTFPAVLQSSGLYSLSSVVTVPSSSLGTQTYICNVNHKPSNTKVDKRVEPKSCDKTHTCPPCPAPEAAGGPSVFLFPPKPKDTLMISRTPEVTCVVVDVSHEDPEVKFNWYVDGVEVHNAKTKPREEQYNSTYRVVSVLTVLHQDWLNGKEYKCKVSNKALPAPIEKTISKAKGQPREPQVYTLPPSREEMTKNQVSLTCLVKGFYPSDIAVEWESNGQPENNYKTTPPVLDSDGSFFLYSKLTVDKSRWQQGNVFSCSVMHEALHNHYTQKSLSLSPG
Full-length human CTGF [3]
  Kd: 0.81 nM

B12: A108 (antibody, human IgG1, kappa, L234A L235A)
light: B3 light
heavy: not shown
Full-length human CTGF [3]
  Kd: 0.42 nM

B13: A115 (antibody, human IgG1, kappa, L234A L235A)
light: B3 light with G34E, N35K
heavy: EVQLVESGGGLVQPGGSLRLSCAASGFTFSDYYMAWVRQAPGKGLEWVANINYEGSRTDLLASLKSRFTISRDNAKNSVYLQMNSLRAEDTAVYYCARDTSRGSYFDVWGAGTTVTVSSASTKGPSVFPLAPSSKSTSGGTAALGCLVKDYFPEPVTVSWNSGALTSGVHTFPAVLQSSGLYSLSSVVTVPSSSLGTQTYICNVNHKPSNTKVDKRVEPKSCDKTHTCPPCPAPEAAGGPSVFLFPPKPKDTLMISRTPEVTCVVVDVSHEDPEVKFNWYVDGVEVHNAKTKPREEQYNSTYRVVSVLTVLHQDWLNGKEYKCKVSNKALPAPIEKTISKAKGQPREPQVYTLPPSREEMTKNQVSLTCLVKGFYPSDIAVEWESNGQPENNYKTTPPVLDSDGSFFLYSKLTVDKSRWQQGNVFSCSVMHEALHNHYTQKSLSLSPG
Full-length human CTGF [3]
  Kd: 0.66 nM

B14: A113 (antibody, human IgG1, kappa, L234A L235A)
light: B3 light with G34E, N35K
heavy: not shown
Full-length human CTGF [3]
  Kd: 0.76 nM

B15: A116 (antibody, human IgG1, kappa, L234A L235A)
light: B3 light with G34E, N35K
heavy: not shown
Full-length human CTGF [3]
  Kd: 0.69 nM

B16: A118 (antibody, human IgG1, kappa, L234A L235A)
light: B3 light with G34E, N35K
heavy: not shown
Full-length human CTGF [3]
  Kd: 0.81 nM

B17: A107 (antibody, human IgG1, kappa, L234A L235A)
light: B3 light
heavy: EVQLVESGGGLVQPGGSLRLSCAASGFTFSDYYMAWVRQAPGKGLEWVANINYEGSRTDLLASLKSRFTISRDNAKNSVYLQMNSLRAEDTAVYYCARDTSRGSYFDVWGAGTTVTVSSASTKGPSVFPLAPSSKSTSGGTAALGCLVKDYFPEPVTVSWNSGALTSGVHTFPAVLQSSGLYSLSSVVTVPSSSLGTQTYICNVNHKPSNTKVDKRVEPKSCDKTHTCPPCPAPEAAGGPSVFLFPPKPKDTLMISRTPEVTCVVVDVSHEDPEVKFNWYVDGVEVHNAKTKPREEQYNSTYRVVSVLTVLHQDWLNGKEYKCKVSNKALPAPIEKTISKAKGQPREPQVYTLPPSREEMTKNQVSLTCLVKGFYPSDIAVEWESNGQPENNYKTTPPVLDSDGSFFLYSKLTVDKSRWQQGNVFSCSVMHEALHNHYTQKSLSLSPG
Full-length human CTGF [3]
  Kd: 0.37 nM

B18: A120 (antibody, human IgG1, kappa, L234A L235A)
light: B3 light with G34E, N35K
heavy: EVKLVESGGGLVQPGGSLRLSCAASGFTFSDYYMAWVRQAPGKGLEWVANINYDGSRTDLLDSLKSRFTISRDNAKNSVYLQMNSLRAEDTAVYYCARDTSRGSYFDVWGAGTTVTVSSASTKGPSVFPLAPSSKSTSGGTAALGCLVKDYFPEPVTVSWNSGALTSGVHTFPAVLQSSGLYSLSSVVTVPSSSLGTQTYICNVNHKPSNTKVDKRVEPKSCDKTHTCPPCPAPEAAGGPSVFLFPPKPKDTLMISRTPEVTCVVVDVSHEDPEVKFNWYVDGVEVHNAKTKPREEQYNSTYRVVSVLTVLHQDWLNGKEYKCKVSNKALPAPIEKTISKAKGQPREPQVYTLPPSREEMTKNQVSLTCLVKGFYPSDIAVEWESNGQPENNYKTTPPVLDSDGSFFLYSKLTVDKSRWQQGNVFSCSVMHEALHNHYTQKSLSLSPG
Full-length human CTGF [3]
  Kd: 0.84 nM

B19: Antibody H2 (antibody, human IgG1, kappa, V domains shown)
VH: EVQLVESGGGLVQPGGSLRLSCAASGFSFNTYAMNWVRQAPGKGLEWVARIRTKSNNYATYYADSVKDRFTISRDDSESSLYLQMNSLKTEDTAVYYCVETGFAYWDQGTLVTVSS
VL: EIVLTQSPATLSLSPGERATLSCSASSSVSYMHWFQQKPGQSPKLWIYSTSNLASGVPARFSGSGSGTDYTLTISSLEPEDFAVYYCQQRSSYPLTFGQGTKLEIKR
notes: as for B1
Full-length human CTGF [1]
  Kd: 0.554 nM and 0.55 nM
  koff: 0.00149 s⁻¹
  kon: 2.7e+06 M⁻¹ s⁻¹
[2]
  Kd: 45.7 nM and 46 nM
  koff: 0.0175 s⁻¹
  kon: 383000 M⁻¹ s⁻¹

B20: A125 (antibody, human IgG1, kappa, L234A L235A)
light: VVMTQTPLSLPVSLGDQASISCRSSQSIVHYNGNTYLEWYLQKPGQSPQLLIYKVSNRDSGVPDRFSGSGSGTDFTLKISRVEAEDLGVYYCFQGSHFPLTFGQGTKLEIKRTVAAPSVFIFPPSDEQLKSGTASVVCLLNNFYPREAKVQWKVDNALQSGNSQESVTEQDSKDSTYSLSSTLTLSKADYEKHKVYACEVTHQGLSSPVTKSFNRGEC
heavy: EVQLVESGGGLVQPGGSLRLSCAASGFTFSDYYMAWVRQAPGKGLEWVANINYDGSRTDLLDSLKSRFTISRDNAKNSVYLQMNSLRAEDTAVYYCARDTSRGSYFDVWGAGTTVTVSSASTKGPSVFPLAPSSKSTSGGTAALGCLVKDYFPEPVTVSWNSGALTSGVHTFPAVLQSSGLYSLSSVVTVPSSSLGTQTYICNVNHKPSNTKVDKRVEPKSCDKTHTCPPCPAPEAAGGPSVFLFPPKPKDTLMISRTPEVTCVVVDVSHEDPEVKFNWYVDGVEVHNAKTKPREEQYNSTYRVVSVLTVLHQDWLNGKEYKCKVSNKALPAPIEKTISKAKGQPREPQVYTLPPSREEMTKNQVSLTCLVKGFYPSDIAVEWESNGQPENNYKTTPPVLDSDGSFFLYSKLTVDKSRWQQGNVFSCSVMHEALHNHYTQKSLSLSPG
Full-length human CTGF [3]
  Kd: 0.26 nM

B21: A13 (antibody, human IgG1, kappa, L234A L235A)
light: B20 light with P11S, R23K, G33E, N34K, N57S, D59A
heavy: not shown
notes: also called antibody A13
Full-length human CTGF [3]
  Kd: 0.25 nM

B22: A126 (antibody, human IgG1, kappa, L234A L235A, V domains shown)
VH: EVQLVESGGGLVQPGGSLRLSCAASGFTFSDYYMAWVRQAPGKGLEWVANINYEGSRTDLLDSLKSRFTISRDNAKNSVYLQMNSLRAEDTAVYYCARDTSRGSYFDVWGAGTTVTVSS
VL: VVMTQTPLSLPVSLGDQASISCRSSQSIVHYNGNTYLEWYLQKPGQSPQLLIYKVSNRDSGVPDRFSGSGSGTDFTLKISRVEAEDLGVYYCFQGSHFPLTFGQGTKLEIKR
Full-length human CTGF [3]
  Kd: 0.27 nM

B23: Antibody A97 (antibody, human IgG1, kappa, L234A L235A)
light: B20 light with P11S, R23K, N57S, D59A
heavy: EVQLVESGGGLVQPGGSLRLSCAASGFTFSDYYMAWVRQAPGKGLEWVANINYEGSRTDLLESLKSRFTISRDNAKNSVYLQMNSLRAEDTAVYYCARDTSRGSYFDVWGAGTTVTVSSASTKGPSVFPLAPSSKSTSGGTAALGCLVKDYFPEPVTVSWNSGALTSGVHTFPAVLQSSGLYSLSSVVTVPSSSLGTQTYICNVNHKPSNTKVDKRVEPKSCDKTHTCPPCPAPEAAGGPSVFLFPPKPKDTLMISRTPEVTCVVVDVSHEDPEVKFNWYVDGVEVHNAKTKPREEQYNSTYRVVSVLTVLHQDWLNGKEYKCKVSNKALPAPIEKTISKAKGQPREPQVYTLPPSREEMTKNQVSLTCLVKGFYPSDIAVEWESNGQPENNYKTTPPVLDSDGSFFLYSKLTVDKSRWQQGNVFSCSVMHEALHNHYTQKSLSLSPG
notes: also called Antibody 97
Full-length human CTGF [1]
  Kd: 0.0018 nM
  koff: 4.8e-06 s⁻¹
  kon: 2.7e+06 M⁻¹ s⁻¹
[2]
  Kd: 0.14 nM
  koff: 4e-05 s⁻¹
  kon: 290000 M⁻¹ s⁻¹
Full-length human CTGF [4]
  Kd: 0.14 nM

B24: A128 (antibody, human IgG1, kappa, L234A L235A)
light: B20 light
heavy: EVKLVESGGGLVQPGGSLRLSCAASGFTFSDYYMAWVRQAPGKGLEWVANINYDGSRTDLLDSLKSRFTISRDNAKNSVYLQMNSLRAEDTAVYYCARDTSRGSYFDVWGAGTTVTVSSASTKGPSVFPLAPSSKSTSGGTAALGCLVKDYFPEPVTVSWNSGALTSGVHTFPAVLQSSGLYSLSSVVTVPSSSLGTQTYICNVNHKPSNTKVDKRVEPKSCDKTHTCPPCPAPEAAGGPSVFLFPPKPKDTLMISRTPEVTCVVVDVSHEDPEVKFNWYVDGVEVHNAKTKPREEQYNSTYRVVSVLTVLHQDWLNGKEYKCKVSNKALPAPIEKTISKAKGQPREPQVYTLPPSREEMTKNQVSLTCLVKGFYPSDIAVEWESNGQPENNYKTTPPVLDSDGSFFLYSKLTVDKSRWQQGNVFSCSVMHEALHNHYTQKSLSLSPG
notes: humanized from the 15 pM mouse clone; also called humanized antibody A128
Full-length human CTGF [3]
  Kd: 0.27 nM

B25: A127 (antibody, human IgG1, kappa, L234A L235A, V domains shown)
VH: B22 VH with E54D, D62E
VL: B22 VL
Full-length human CTGF [3]
  Kd: 0.28 nM
